From publication PMC3145919 (Neuron, 2011)
Like-named read-outs stand apart in the source and are kept apart here.

Tests used:
[1] = target: KA2 amino terminal domain (ATD), wild type (rat) (UniProt Q63273); test: AUC
[2] = target: KA2 amino terminal domain (ATD), wild type (rat) (UniProt Q63273); test: AUC; remark: listed apart in the source
[3] = target: GluR6Δ2 F58A mutant ATD (rat) (UniProt P42260); test: AUC
[4] = target: GluR6Δ2 ATD (G215N/M217T glycan wedge mutant) (rat) (UniProt P42260); test: AUC
SEC-MALS = target: the molecule itself; test: SEC-MALS
AUC [5] = target: the molecule itself; test: AUC
AUC [6] = target: the molecule itself; test: AUC; remark: listed apart in the source
AUC [7] = target: the molecule itself; test: AUC; remark: listed apart in the source

Molecule: KA2 amino terminal domain (ATD), wild type (from UniProt Q63273 20-406) (domain or fragment)
- Kd [1]: 350 µM
- Kd [2]: 410 µM

Molecule: KA2 Y57A mutant ATD (domain or fragment)
- Kd [3]: 1.63 µM
- Kd [4]: 140 nM

Molecule: KA2 Y57A/E156A mutant ATD (domain or fragment)
- Kd [3]: 2 µM

Molecule: KA2 Y57A/S165G/T168A mutant ATD (domain or fragment)
- Kd [3]: 13 µM

Molecule: KA2 Y57A/L163A mutant ATD (domain or fragment)
- Kd [3]: 6.7 µM

B1: GluR6 amino terminal domain (ATD), wild type (domain or fragment, rat)
chain: TTHVLRFGGIFEYVESGPMGAEELAFRFAVNTINRNRTLLPNTTLTYDTQKINLYDSFEASKKACDQLSLGVAAIFGPSHSSSANAVQSICNALGVPHIQTRWKHQVSDNKDSFYVSLYPDFSSLSRAILDLVQFFKWKTVTVVYDDSTGLIRLQELIKAPSRYNLRLKIRQLPADTKDAKPLLKEMKRGKEFHVIFDCSHEMAAGILKQALAMGMMTEYYHYIFTTLDLFALDVEPYRYSGVNMTGFRILNTENTQVSSIIEKWSMERLQAPPKPDSGLLDGFMTTDAALMYDAVHVVSVAVQQFPQMTVSSLQCNRHKPWRFGTRFMSLIKEAHWEGLTGRITFNKTNGLRTDFDLDVISLKEEGLEKIGTWDPASGLNMTESQKGK
modifications: N-linked glycans
- binding result (SEC-MALS): binds

B2: GluR6Δ2 ATD (G215N/M217T glycan wedge mutant) (domain or fragment, rat)
chain: TTHVLRFGGIFEYVESGPMGAEELAFRFAVNTINRNRTLLPNTTLTYDTQKINLYDSFEASKKACDQLSLGVAAIFGPSHSSSANAVQSICNALGVPHIQTRWKHQVSDNKDSFYVSLYPDFSSLSRAILDLVQFFKWKTVTVVYDDSTGLIRLQELIKAPSRYNLRLKIRQLPADTKDAKPLLKEMKRGKEFHVIFDCSHEMAAGILKQALAMNMTTEYYHYIFTTLDLFALDVEPYRYSGVNMTGFRILNTENTQVSSIIEKWSMERLQAPPKPDSGLLDGFMTTDAALMYDAVHVVSVAVQQFPQMTVSSLQCNRHKPWRFGTRFMSLIKEAHWEGLTGRITFNKTNGLRTDFDLDVISLKEEGLEKIGTWDPASGLNMTESQKGK
modifications: N-linked glycans, one introduced by the mutations (glycan wedge)
- stoichiometry N (SEC-MALS): 2
- Kd (AUC [5]): 250 nM
- Kd (AUC [6]): 350 nM

B3: wt GluR6/KA2 ATD heterodimer (complex, rat)
chain 1: TTHVLRFGGIFEYVESGPMGAEELAFRFAVNTINRNRTLLPNTTLTYDTQKINLYDSFEASKKACDQLSLGVAAIFGPSHSSSANAVQSICNALGVPHIQTRWKHQVSDNKDSFYVSLYPDFSSLSRAILDLVQFFKWKTVTVVYDDSTGLIRLQELIKAPSRYNLRLKIRQLPADTKDAKPLLKEMKRGKEFHVIFDCSHEMAAGILKQALAMGMMTEYYHYIFTTLDLFALDVEPYRYSGVNMTGFRILNTENTQVSSIIEKWSMERLQAPPKPDSGLLDGFMTTDAALMYDAVHVVSVAVQQFPQMTVSSLQCNRHKPWRFGTRFMSLIKEAHWEGLTGRITFNKTNGLRTDFDLDVISLKEEGLEKIGTWDPASGLNMTESQKGK
chain 2: VLSSLRMAAILDDQTVCGRGERLALALAREQINGIIEVPAKARVEVDIFELQRDSQYETTDTMCQILPKGVVSVLGPSSSPASASTVSHICGEKEIPHIKVGPEETPRLQYLRFASVSLYPSNEDVSLAVSRILKSFNYPSASLICAKAECLLRLEELVRGFLISKETLSVRMLDDSRDPTPLLKEIRDDKVSTIIIDANASISHLVLRKASELGMTSAFYKYILTTMDFPILHLDGIVEDSSNILGFSMFNTSHPFYPEFVRSLNMSWRENCEASTYPGPALSAALMFDAVHVVVSAVRELNRSQEIGVKPLACTSANIWPHGTSLMNYLRMVEYDGLTGRVEFNSKGQRTNYTLRILEKSRQGHREIGVWYSNRTLAMNATTLDI
modifications: N-linked glycans | N-linked glycans
- Kd (AUC [7]): 6.2 µM

B4: GluR6Δ1 ATD (A213N/G215S glycan wedge mutant) (domain or fragment, rat)
chain: TTHVLRFGGIFEYVESGPMGAEELAFRFAVNTINRNRTLLPNTTLTYDTQKINLYDSFEASKKACDQLSLGVAAIFGPSHSSSANAVQSICNALGVPHIQTRWKHQVSDNKDSFYVSLYPDFSSLSRAILDLVQFFKWKTVTVVYDDSTGLIRLQELIKAPSRYNLRLKIRQLPADTKDAKPLLKEMKRGKEFHVIFDCSHEMAAGILKQALNMSMMTEYYHYIFTTLDLFALDVEPYRYSGVNMTGFRILNTENTQVSSIIEKWSMERLQAPPKPDSGLLDGFMTTDAALMYDAVHVVSVAVQQFPQMTVSSLQCNRHKPWRFGTRFMSLIKEAHWEGLTGRITFNKTNGLRTDFDLDVISLKEEGLEKIGTWDPASGLNMTESQKGK
modifications: N-linked glycans, one introduced by the mutations (glycan wedge)
- stoichiometry N (SEC-MALS): 2
